From patent US20150250848A1 (TRUSTEES OF DARTMOUTH COLLEGE, published 2015)
Each block holds one binder with its values, some of them ahead of it. Where no end group is shown, it is not given here. [ ]: non-standard residue; d: D form. The star is where a group is joined. Biotin = O=C1N[C@H]2[C@H](CS[C@H]2CCCCC(=O)*)N1; Ahx = NCCCCCC(=O)O

Legend:
CAL PDZ domain (CALP) [1] = biological target: T1, CAL PDZ domain (CALP) (UniProt Q9HD26 278-362); assay: fluorescence polarization; reference: iCAL42 with the CAL PDZ domain
[2] = biological target: T2, His10 tagged (uncleaved) TIP-1 (UniProt O14907 1-124); assay: CombLib peptide array
T2 construct: also called TIP-1 (peptide array experiments); not shown: N-terminal His10 tag
T2 sequence: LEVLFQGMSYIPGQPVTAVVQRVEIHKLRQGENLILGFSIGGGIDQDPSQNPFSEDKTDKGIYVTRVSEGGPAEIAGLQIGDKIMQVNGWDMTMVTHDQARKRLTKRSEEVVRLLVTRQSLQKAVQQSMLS
Description: (§1) For TIP-1 peptide array experiments, His₁₀ tagged (uncleaved) protein was used to facilitate quantitation.

[3] = biological target: T3, Tax-interacting protein-1 (TIP-1), recombinant, tag cleaved (UniProt O14907 1-124); assay: FP displacement assay
T3 construct: Used for FP and crystallization; also called TIP-1 PDZ domain
T3 sequence (looked up): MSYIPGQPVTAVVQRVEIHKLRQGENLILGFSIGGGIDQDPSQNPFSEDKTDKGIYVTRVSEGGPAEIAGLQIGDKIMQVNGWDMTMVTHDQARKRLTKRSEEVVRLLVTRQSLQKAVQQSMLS
Procedure: as §1
In order to quantitate the impact of the P⁻⁵ Leu substitution and to assess inhibitory potential at high peptide concentrations, FP displacement assays were performed.

CAL PDZ domain (CALP) [4] = biological target: T1, CAL PDZ domain (CALP); assay: calculated from Ki values (FP); reference: the same peptide with the highest affinity alternative among the NHERF and TIP-1 PDZ domains
CAL PDZ domain (CALP) [5] = biological target: T1, CAL PDZ domain (CALP); assay: calculated from Ki values (FP); reference: the same peptide with TIP-1
CAL PDZ domain (CALP) [6] = biological target: T1, CAL PDZ domain (CALP); assay: calculated from Ki values (FP); reference: the same peptide with the NHERF PDZ domains
[7] = biological target: T3, Tax-interacting protein-1 (TIP-1), …; assay: FP displacement assay, reporter F*-iCAL36
CAL PDZ domain (CALP) [8] = biological target: T1, CAL PDZ domain (CALP); assay: calculated from Ki values (FP); reference: the same peptide with N2P2
CAL PDZ domain (CALP) [9] = biological target: T1, CAL PDZ domain (CALP); assay: FP competition assay
CAL PDZ domain (CALP) [10] = biological target: T1, CAL PDZ domain (CALP); assay: fluorescence polarization competition
CAL PDZ domain (CALP) [11] = biological target: T1, CAL PDZ domain (CALP); assay: fluorescence polarization competition with a labeled peptide
Procedure: (§2) The experimental inhibitory constants of top- and poorly-ranked peptide sequences from the K* CAL-CFTR design were experimentally determined. […] The corresponding N-terminally acetylated peptides were purchased from NEO Bio-Science (Cambridge, Mass.) and the Kᵢ values for the peptides were detected using fluorescence polarization. Briefly, the CAL PDZ domain was incubated with a labeled peptide of known binding affinity. Each peptide inhibitor was serially diluted and the protein-peptide mixture was added to each dilution. Finally, the amount of competitive inhibition was tracked using residual fluorescence polarization.
(§3) The Kᵢ value for each peptide hexamer was determined using fluorescence polarization.

CAL PDZ domain (CALP) [12] = biological target: T1, CAL PDZ domain (CALP); assay: fluorescence polarization competition; reference: iCAL35 with CAL
Procedure: as §2, §3

CAL PDZ domain (CALP) [13] = biological target: T1, CAL PDZ domain (CALP); assay: fluorescence polarization competition; reference: wild-type CFTR sequence with CAL
Procedure: as §2, §3

fold enhancement in CAL affinity (CAL PDZ domain (CALP) [1]): 5 fold
B1: F*-iCAL42 (peptide)
peptide: {Fluorescein-Ahx}-ANSRLPTSII
notes: also called N-terminally fluoresceinated version of iCAL42

binding result [2]: no binding
ΔΔG (CAL PDZ domain (CALP) [4]): -2.5 kcal/mol
B2: iCAL42 (peptide)
peptide: ANSRLPTSII
notes: also called unlabeled iCAL42
binding result [3]: no binding (tested: up to millimolar peptide concentrations)

binding result [3]: no binding
B3: P^-5 alanine mutant of iCAL36 (ANSRAPTSII) (peptide)
peptide: ANSRAPTSII

ΔΔG (CAL PDZ domain (CALP) [5]): 1 kcal/mol
ΔΔG (CAL PDZ domain (CALP) [6]): -3.3 kcal/mol
B4: iCAL36 (peptide)
peptide: ANSRWPTSII
notes: also called PRC 36; iCa136

Ki [7]: 130 µM
ΔΔGCAL-best (CAL PDZ domain (CALP) [8]): 0.1 kcal/mol
B5: somatostatin receptor subtype 5 (SSR5) C-terminal peptide (peptide)
peptide: ANGLMQTSKL

Ki (CAL PDZ domain (CALP) [9]): 9.2 µM
B6: BT-iCAL42 (peptide)
peptide: Biotin-W[dR]FKKANSRLPTSII
notes: also called biotinylated analog of iCAL42

Ki (CAL PDZ domain (CALP) [10]): 14.8 µM
B7: iCAL35 (peptide)
peptide: Ac-WQTSII
notes: the corresponding N-terminally acetylated peptides were bought; also called WQTSII; best known peptide hexamer

Ki (CAL PDZ domain (CALP) [11]): 2.1 µM
fold improvement over iCAL35 (CAL PDZ domain (CALP) [12]): 7 fold
fold higher affinity (CAL PDZ domain (CALP) [13]): 331 fold
B8: kCAL01 (peptide)
peptide: Ac-WQVTRV
notes: also called WQVTRV
